In patent US20210269480A1 (published 2021):
*1 amine or outer side, *2 acyl side, *3 side chain or, on linkers, in order; H or OH if unused. Bridges are numbered along the chain shown (N, C = ends). Where no end group is shown, it is not given here. [ ]: non-standard residue; d: D form. 124TriAz = 3-(1,2,4-triazol-1-yl)-alanine, O=C([C@H](Cn1cncn1)N[*:1])[*:2]; TATA = O=C(CC[*:1])N1CN(C(=O)CC[*:2])CN(C(=O)CC[*:3])C1; HGln = homoglutamine, NC(=O)CCC[C@H](N[*:1])C(=O)[*:2]; Trp(5-F) = N[C@@H](Cc1c[nH]c2ccc(F)cc12)C(=O)O; Ala(4-thiazolyl) = N[C@@H](Cc1cscn1)C(=O)O; 1Nal = N[C@@H](Cc1cccc2ccccc12)C(=O)O; 2Nal = N[C@@H](Cc1ccc2ccccc2c1)C(=O)O; Dopa = N[C@@H](Cc1ccc(O)c(O)c1)C(=O)O; Gly(cPent) = N[C@H](C(=O)O)C1CCCC1; Ser(ΨH,HPro) = O=C(O)[C@@H]1COCN1; Ala(cPr) = N[C@@H](CC1CC1)C(=O)O; Hyp = O=C(O)[C@@H]1C[C@@H](O)CN1; NMeT = CN[C@H](C(=O)O)[C@@H](C)O; hArg = N=C(N)NCCCC[C@H](N)C(=O)O; 2Thi = N[C@@H](Cc1cccs1)C(=O)O; NMeC = CN[C@@H](CS)C(=O)O; hSer = N[C@@H](CCO)C(=O)O; Aib = CC(C)(N)C(=O)O; βAla = NCCC(=O)O; Sar = CNCC(=O)O

T1: human Nectin-4 (human, UniProt Q96NY8 32-349)
T1 construct: a Gly32-Ser349 FLAG construct is described only under the SPR assay; also called PVRL4
T1 sequence (looked up): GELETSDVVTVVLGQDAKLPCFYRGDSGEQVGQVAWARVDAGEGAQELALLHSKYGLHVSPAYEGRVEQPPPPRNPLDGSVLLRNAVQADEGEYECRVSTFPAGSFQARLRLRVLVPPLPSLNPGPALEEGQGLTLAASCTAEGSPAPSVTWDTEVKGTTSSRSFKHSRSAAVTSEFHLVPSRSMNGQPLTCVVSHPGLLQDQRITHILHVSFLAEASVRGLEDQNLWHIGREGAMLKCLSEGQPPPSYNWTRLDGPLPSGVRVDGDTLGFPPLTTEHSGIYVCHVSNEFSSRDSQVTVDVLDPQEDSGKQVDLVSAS


Target: T1, human Nectin-4
Test: FP competition, tracer SEQ ID NO 217
Description: Peptides were diluted to an appropriate concentration in assay buffer as described in the direct binding assay with a maximum of 5% DMSO, then serially diluted 1 in 2. […] Measurements were conducted as for the direct binding assay, however the gain was determined prior to the first measurement. Data analysis was in Systat Sigmaplot version 12.0 where the mP values were fit to a user defined cubic equation to generate a Ki value: […]

Row | Binder | Ki [nM]
1 | Ac-CPF[dD]CM[hArg]NW[hSer]TPIWC (linker 1-5-15 via TATA) [BCY7908] | 20
2 | Ac-CP[Dopa][dD]CM[hArg]NWSTPIWC (linker 1-5-15 via TATA) [BCY7886] | 15
3 | Ac-CP[1Nal][dD]CM[hArg]DWSTPIWC (linker 1-5-15 via TATA) [BCY8127] | 2.4
4 | Ac-CPF[dD]C[HGln][hArg]NWSTPIWC (linker 1-5-15 via TATA) [BCY7914] | 62
5 | Ac-CPF[dD]CM[hArg][Ala(4-thiazolyl)]WSTPIWC (linker 1-5-15 via TATA) [BCY7879] | 12.5
6 | DTACPFGCMRGWSWPIWCA (linker 4-8-18 via TATA) [BCY3388] | 129
7 | Ac-CPF[dL]CM[hArg]NWSTPIWC (linker 1-5-15 via TATA) [BCY7906] | 6
8 | Ac-CPF[dA]CMKNWSWPIWC (linker 1-5-15 via TATA) [BCY7538] | 8.5
9 | Ac-CPF[dD]CMKNWSTPIWC (linker 1-5-15 via TATA) [BCY7819] | 12
10 | DDWCAPLDDYWCGRICA (linker 4-12-16 via TATA, also called 80-10-11-T01) [BCY433] | 69.4
11 | Ac-CP[1Nal][dD]CM[hArg]NWSTPIWC (linker 1-5-15 via TATA) [BCY8030] | 2.5
12 | Ac-C[Ser(ΨH,HPro)]F[dD]CM[hArg]NWSTPIWC (linker 1-5-15 via TATA) [BCY7876] | 59.2
13 | Ac-CPF[dD]CM[hArg]NWS[Dopa]PIWC (linker 1-5-15 via TATA) [BCY7887] | 21.4
14 | Ac-QK[1Nal]CAPLSDYWCNRIC (linker 4-12-16 via TATA) [BCY7996] | 21
15 | SDNCPFGCMKDWSWPIWCA (linker 4-8-18 via TATA) [BCY3387] | 234
16 | Ac-CPF[dQ]CM[hArg]NWSTPIWC (linker 1-5-15 via TATA) [BCY7904] | 8
17 | Ac-CPF[dS]CM[hArg]NWSTPIWC (linker 1-5-15 via TATA) [BCY7907] | 10
18 | Ac-CP[2Nal][dD]CM[hArg]NWSTPIWC (linker 1-5-15 via TATA) [BCY8031] | 3.6
19 | Ac-CPF[dD]CM[hArg]NWSTP[Hyp]WC (linker 1-5-15 via TATA) [BCY8037] | 5.6
20 | {Ac-βAla}-[Sar][Sar][Sar][Sar][Sar]CP[1Nal][dD]CM[hArg]DWSTP[Hyp]WC (linker 6-10-20 via TATA) [BCY8122] | 3
21 | {Ac-βAla}-[Sar][Sar][Sar][Sar][Sar]CP[1Nal][dD]CM[hArg]HWSTP[Hyp]WC (linker 6-10-20 via TATA) [BCY8121] | 4
22 | {Ac-βAla}-[Sar][Sar][Sar][Sar][Sar]CP[1Nal][dD]CM[hArg]NWSTP[Hyp]WC (linker 6-10-20 via TATA) [BCY8120] | 3
23 | ACAPLDDYWCGRICA (linker 2-10-14 via TATA) [BCY432] | 1100
24 | Ac-CPF[dD]CM[hArg]N[Trp(5-F)]STPIWC (linker 1-5-15 via TATA) [BCY7891] | 5
25 | Ac-CPF[dD]C[Gly(cPent)][hArg]NWSTPIWC (linker 1-5-15 via TATA) [BCY7915] | 20
26 | DDACPFGCMETWSWPIWCA (linker 4-8-18 via TATA) [BCY3386] | 80.2

Next, values leading:

Row | Ki [nM] | Binder
27 | 191 | Ac-CPF[dD]C[hArg]NWS[NMeT]PIWC (linker 1-5-14 via TATA) [BCY7979]
28 | 4.5 | Ac-CP[1Nal][dD]CL[hArg]DWSTPIWC (linker 1-5-15 via TATA) [BCY8211]
29 | 4.5 | {Ac-βAla}-[Sar][Sar][Sar][Sar][Sar]CP[1Nal][dD]CM[hArg]DWSTPIWC (linker 6-10-20 via TATA) [BCY8123]
30 | 3 | Ac-CP[1Nal][dR]CM[hArg]DWSTPIWC (linker 1-5-15 via TATA) [BCY8215]
31 | 170 | Ac-CAPLSDYWCNRIC (linker 1-9-13 via TATA) [BCY8044]
32 | 9.5 | Ac-CPF[dD]CM[hArg][2Thi]WSTPIWC (linker 1-5-15 via TATA) [BCY7877]
33 | 14.4 | Ac-CPF[dD]CM[hArg][124TriAz]WSTPIWC (linker 1-5-15 via TATA) [BCY7881]
34 | 41 | Ac-CPF[dE]CM[hArg]NWSTPIWC (linker 1-5-15 via TATA) [BCY7903]
35 | 135 | Ac-QKWCAPLSDY[1Nal]CNRIC (linker 4-12-16 via TATA) [BCY7998]
36 | 189 | Ac-CPF[dD]CM[hArg]NWS[124TriAz]PIWC (linker 1-5-15 via TATA) [BCY7883]
37 | 4 | Ac-CPF[dD][NMeC]M[hArg]NWSTPIWC (linker 1-5-15 via TATA) [BCY7973]
38 | 8 | Ac-CPF[dK](MeO‑dPEG12)CM[hArg]NWSTPIWC (linker 1-5-15 via TATA) [BCY8089]
39 | 4 | Ac-CPF[dF]CM[hArg]NWSTPIWC (linker 1-5-15 via TATA) [BCY7902]
40 | 10 | Ac-CPF[dK]CM[hArg]NWSTPIWC (linker 1-5-15 via TATA) [BCY7820]
41 | 9.5 | Ac-CPF[dD]CM[hArg]NWSTPI[Trp(5-F)]C (linker 1-5-15 via TATA) [BCY7892]
42 | 60 | Ac-QKWCAPLSDYWC[dD]RIC (linker 4-12-16 via TATA) [BCY8000]
43 | 3.5 | Ac-CP[1Nal][dD]CM[hArg]NWSTP[Hyp]WC (linker 1-5-15 via TATA) [BCY8124]
44 | 9 | Ac-CPF[dD]CM[hArg]NWSTP[Ala(cPr)]WC (linker 1-5-15 via TATA) [BCY7912]
45 | 223 | Ac-CPF[dD]CM[hArg]NWST[Ser(ΨH,HPro)]IWC (linker 1-5-15 via TATA) [BCY7884]
46 | 22 | Ac-QK[2Nal]CAPLSDYWCNRIC (linker 4-12-16 via TATA) [BCY7997]
47 | 61.9 | Ac-DDDCPF[dD]CM[hArg]NWSTPIWC (linker 4-8-18 via TATA) [BCY8028]
48 | 39.1 | Ac-C[Aib]F[dD]CM[hArg]NWSTPIWC (linker 1-5-15 via TATA) [BCY8041]
